In patent publication US20210292393A1 (published 2021):
Numbering of substitutions follows the chain as printed.

B1: antibody 294 (antibody, V domains shown)
VH: EVQLVESGGGLVQPGGSLRLSCAASGFTVSSNYMNWVRQAPGKGLEWVSVIYSGGSTYYADSVKGRFTISRDNSKNTLYLQMNSLRAEDTAVYYCARDLGPSGMDVWGQGTTVTVSS
VL: DIQMTQSPSSVSASVGDRVTITCRASQGISSWLAWYQQKPGKAPKLLIYAASSLQSGVPSRFSGSGSGTDFTLTISSLQPEDFATYYCQQANSFPLFGGGTKVEIK
B2: antibody 301 (antibody, V domains shown)
VH: QVQLVQSGAEVKKPGASVKVSCKVSGYTLTELSMHWVRQAPGKGLEWMGGFDPEDGETIYAQKFQGRVTMTEDTSTDTAYMELSSLRSEDTAVYYCATAFCGGDCYPPDALDIWGQGTMVTVSS
VL: DIQMTQSPSSVSASVGDRVTITCRASQGISSWLAWYQQKPGKAPKLLIYAASSLQSGVPSRFSGSGSGTDFTLTISSLQPEDFATYYCQQANSFPLTFGGGTKVEIK
B3: antibody 260 (antibody, V domains shown)
VH: EVQLVESGGGLVQPGRSLRLSCAASGFTFDYYAMHWVRQAPGKGLEWVSGISWNSGTIGYADSVKGRFTISRDNAKNSLYLQMNSLRAEDTALYYCAKDSRPSGRYYYGMDVWGQGTTVTVSS
VL: not shown
B4: antibody 290 (antibody, V domains shown)
VH: QVHLVQSGAEVKKPGASVKVSCAASGYTFNNYGVSWVRQAPGQGLEWMGWISASNGNTKYAQNLQGRVTMTTDTSTSTAYMELRSLRSDDTAVYYCARDLVGPTAPNYYYGMDVWGQGTAVTVSS
VL: QSVLTQPPSVSGAPGQRVTISCTGSSSSIGAGYDVHWYQQLPGTAPKLLIYANSNRPSGVPDRLSGSKSGTSASLAITGLQAEDEADYYCQSYDSSLSGYVFGTGTKVTVL
B5: antibody 266 (antibody, V domains shown)
VH: QVQLVESGGGVVQPGRSLRLSCAASGFNLSNYAMHWVRQPSGKGLEWVSLISYDGSIKYYTDSVKGRFTVSGDNSKNTLFLQMNSLRPDDSALYYCVRGGVSGPNSFDMWGQGTTVTVSS
VL: DVVMTQSPLSLPVTLGQPASISCRSSQSLVYSDGNTYVNWFQQRPGQSPRRLIYQVSIRASGVPDRFSGSGSGTDFALKISRVEAEDVGVYYCMQGTHWPVTFGQGTKVEIK
B6: antibody 303 (antibody, V domains shown)
VH: B5 VH with N31S, P40A, T61A, T78M, P88A, S106A, M109I
VL: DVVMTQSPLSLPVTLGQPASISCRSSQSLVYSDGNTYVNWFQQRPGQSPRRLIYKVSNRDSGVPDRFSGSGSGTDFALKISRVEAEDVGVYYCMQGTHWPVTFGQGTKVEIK
B7: antibody 299 (antibody, V domains shown)
VH: not shown
VL: EIVLTQSPATLSLSPGERATLSCRASQSVSSYLAWYQQKPGQAPRLLIYDASNRATGIPARFSGSGSGTDFTLTISSLEPEDFAVYYCQQRSNWPWTFGQGTKVEIK
B8: antibody 295 (antibody, V domains shown)
VH: QVQLQESGPGLVKPSQTLSLTCTVSGGSISSSDYYWSWIRQPPGKGLEWIGYIYYSGSTYYNPSLKSRVTISVDTSKNQFSLKLSSVTAADTAVYYCARVVGYCSSTSCYVDYWGQGTLVTVSS
VL: EIVLTQSPATLSLSPGERVTLSCRASQSVSSYLAWYQQKPGQAPRLLIYDASNRATGIPARFSGSGSGTDFTLTISSLEPEDFAVYYCQQRSNWPPGLTFGGGTKVEIK
B9: antibody 300 (antibody, V domains shown)
VH: QVQLVESGGGVVQPGRSLTLSCAASGFTFSSYAMHWVRQAPGKGLEWVALISYDGNNKYYADSVKGRFTFSRDNSKNTLYLQMNSLRAEDTAVYYCARTNSGSYRTAFDYWGQGTLVTVSS
VL: DIQMTQSPSTLSASVGDRVTITCRASQSISIWLAWYQQKPGKAPKLLIYKASSLESGVPSRFSGSGSGTEFTLTISSLQPDDFATYYCQQYNSLWTFGQGTKVEIK
B10: antibody 288 (antibody, V domains shown)
VH: EVQLVESGGGLVQPGGSLRLSCAASGFTFSSYDMHWVRQATGKGLEWVSAIGTAGDTYYPGSVKGRFTISRENAKNSLYLQMNSLRAGDTAVYYCARGANRDYDILTGYYSYYYYGMDVWGQGTTVTVSS
VL: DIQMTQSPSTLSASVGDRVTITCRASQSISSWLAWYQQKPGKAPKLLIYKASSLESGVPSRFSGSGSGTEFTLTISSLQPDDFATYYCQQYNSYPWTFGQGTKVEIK
B11: antibody 317 (antibody, V domains shown)
VH: QVQLVQSGAEVKKPGASVKVSCKVSGYTLTELSMHWVRQAPGKGLEWMGGFDPEDGETIYAQKFQGRVTMTEDTSTDTAYMELSSLRSEDTAVYYCASSPAAAGTSQYYYYYGMDVWGQGTTVTVSS
VL: not shown
B12: antibody 260 (antibody, V domains shown)
VH: B3 VH
VL: not shown
B13: anti-SARS-CoV-2 antibody 1009 (antibody, V domains shown)
VH: QLQLQESGPGLVKPSQTLSLTCTVSGGSISSGSYYWSWIRQPAGKGLEWIGSIYTSGSTYYNPSLKSRVTISVDTSKNQFSLKLSSVTAADTAVYYCARKNWLQGSFDYWGQGTLVIVSS
VL: NFMLTQPHSVSESPGKTVTISCTRSSGSIANNYVQWYQQRPGSAPTTVIYEDNQRPSGVPDRFSGSIDSSSNSASLTISGLKTEDEADYYCQSYDTSNHGVFGGGTKLTVL
B14: anti-SARS-CoV-2 antibody 923 (antibody, V domains shown)
VH: EVQLVESGGGVVRPGGSLRLSCAASGFIFDDYDMTWVRQAPGKGLEWVSGISWNGGNTGYADSVKGRFTISRDNAKNSLYLQMNSLRAEDTALYHCAVIMSPIPRYSGYDWAGGAFDIWGQGTMVTVSS
VL: SSELTQDPAVSVALGQTVRITCQGDSLRSYYASWYQQKPGQVPILVIYDKNNRPSGIPDRFSGSSSGNTASLTITGAQAEDEADYYCNSRDSSGNAVVFGGGTKLTVL
B15: anti-SARS-CoV-2 antibody 933 (antibody, V domains shown)
VH: QVQLVQSGAEVKKPGASVKVSCKASGYTFTTYDINWVRQATGQGLEWMGWMNPNSGYTDSAQKFQGRVTMTRNTSISTAYMELSSLRSEDTAVYYCASGRGVKTYYFDYWGQGTLVTVSS
VL: SYELTQPPSVSVSPGQTASITCSGDKLGDKSACWYQQKPGQSPVLVICQDTKRPSGIPERFSGSNSGNTATLTISGTQAMDEADYYCQAWDSRTVVFGGGTKLTVL
B16: anti-SARS-CoV-2 antibody 1203 (antibody, V domains shown)
VH: QLRLQESGPGLVKPSETLSLTCTVSGGSISSSNFYWGWIRQPPGKGLEWIGSIYYSGSTHYNPSLKSRVTVSVDTSKNQFSLKLSSVTAADTAVYYCARLTYYYDSSGFIRAEPFDYWGQGILVTVSS
VL: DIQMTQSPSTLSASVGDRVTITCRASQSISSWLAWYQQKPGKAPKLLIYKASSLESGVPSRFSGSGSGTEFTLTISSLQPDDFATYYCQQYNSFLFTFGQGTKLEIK
B17: anti-SARS-CoV-2 antibody 1098 (antibody, V domains shown)
VH: DVQLVQSGAEVKKPGESLKISCKGSGYRFTSYWIAWVRQMPGKGLEWMGIIYPGDSDTRYSPSFQGQVTISADKSISTAYLQWSSLKASDTAMYYCASQAAAGYFYYMDVWGKGTTVTVSS
VL: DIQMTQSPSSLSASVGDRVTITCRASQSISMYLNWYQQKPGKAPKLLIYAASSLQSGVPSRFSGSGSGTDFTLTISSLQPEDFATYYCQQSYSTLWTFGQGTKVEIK
B18: anti-SARS-CoV-2 antibody 1118 (antibody, V domains shown)
VH: EVQLVESGGGLVQPGGSLRLSCAASGFRFSNYEMNWVRQAPGKGLEWVSYISSTGGSIFYADSVKGRFTISRGDAKNSVYLQMNSLRAEDTAVYYCARAMYYYGSGTLDYWGQGTLVTVSS
VL: DIQMTQSPSSLSASVGDRVTITCRASQSISRFLNWYQQKPGTAPKLLIYDVSSLQSGVPTRFSGSGSGTDFTLTISSLQPEDFATYYCQQSYTTPPAFGPGTRVDIK

Biological target: SARS-CoV-2 full length spike protein (wild type) (SARS-CoV-2, UniProt P0DTC2 14-1208)
Assay: not given

| Binder | binding signal, bead assay (fold over isotype) |
| --- | --- |
| B1 | 1230 |
| B2 | 865 |
| B3 | 724 |
| B4 | 1.16 |
| B5 | 473 |
| B6 | 341 |
| B7 | 1.43 |
| B8 | 599 |
| B9 | 721 |
| B10 | 495 |

Biological target: SARS-CoV-2 full length spike protein (wild type) (SARS-CoV-2, UniProt P0DTC2 14-1273)
Assay: not given

| Binder | median fluorescence intensity, fold over isotype control [fold over isotype] |
| --- | --- |
| B11 | 11.2 |
| B12 | 10.3 |

Biological target: SARS-CoV-2 spike protein (wild type), spike protein trimer (SARS-CoV-2, UniProt P0DTC2 14-1208)
Assay: not given

| Binder | Kd [nM] |
| --- | --- |
| B13 | 0.168 |
| B14 | 0.035 |
| B15 | 0.276 |
| B16 | 0.302 |
| B17 | 0.173 |
| B18 | 0.223 |

Biological target: SARS-CoV-2 full-length spike protein on pseudotyped lentivirus (SARS-CoV-2, UniProt P0DTC2 14-1273)
Assay: cell-based or functional assay

| Binder | Pseudo-neutralization IC50 [mg/L] |
| --- | --- |
| B13 | 0.17 |
| B14 | 0.093 |
| B15 | 0.022 |
| B16 | 0.02 |
| B17 | 0.087 |
| B18 | 0.026 |
